{"source": "patent US5834428A", "about": "“Glucagon-like peptide-2 and its therapeutic use” (1149336 Ontario Inc., priority 1996, dated 1998)", "key": {"small bowel": {"system": "small bowel", "assay": "Small bowel weight in mice after 10 days of s.c. peptide in 16% gelatin (Example 1)", "format": "in vivo", "conditions": "for Small bowel weight Day 10: individual mice", "experimental": "(§1) In a first experiment designed to investigate the effect of glicentin on small bowel growth, two groups of six mice (8 week, CD1 females from Charles River Laboratories) were treated as follows. Each mouse received 41.5 μg injections every 12 hours for 10 days. The injections were delivered subcutaneously in a final volume of 16% gelatin, with 0.5 cc injected subcutaneously every 12 hours. […] Control mice received 0.5 cc of 16% gelatin solution, but no peptide, every 12 hours. Mice were fed standard rat chow with free access to food and water, until 12 hours prior to sacrifice, at which time food was withheld, and water only was given. The weight of the small bowel was ascertained by excising the entire small bowel, and removing the stomach (proximal end) and appendix/cecum/large bowel (distal end). The remaining small bowel was cleaned with saline to remove feces, and weighed. Results were as follows:\nGLP-2 formulations for injection were prepared as follows: Gelatin was dissolved in warm water to a weight ratio of 16%, and the 50 mL solution was autoclaved and cooled to room temperature. A peptide solution was then separately prepared by mixing 5 mg of GLP-2 with water at a volume slightly less than 10 mL, and then adding 1N acetic acid in a volume (10-20 μL) sufficient to dissolve the peptide completely. The pH was then readjusted to about 7.0 by addition of an equal volume of 1N NaOH (10-20 μL), and the solution volume was then adjusted to 10 mL by addition of distilled water. To prepare the formulation for injection, the 10 mL peptide solution and the 50 mL solution of 16% gelatin were combined with mixing, and aliquots for injection were drawn into a 0.5 mL insulin syringe.\n(§2) Mice were injected with 0.5 ml of the 16% gelatin solution, without or with peptide (62.5 μg/dose). Four groups of four mice (8 week, CD1 females from Charles River Laboratories) were injected twice daily for 10 days."}, "[1]": {"assay": "Weight of mice during 10-day peptide treatment (Example 1)", "format": "in vivo", "conditions": "individual mice", "experimental": "as §1, with “weighed.” for “weighed. Results were as follows:”\nas §2"}, "Solubility in water": {"assay": "Solubility in water", "format": "physicochemical", "conditions": "preparation of injection solution"}, "[2]": {"assay": "Complete autopsy after long term administration", "format": "in vivo, mice", "conditions": "5 μg once a day s.c. in 10% gelatin for 4, 8 or 12 weeks", "experimental": "Effect of Long Term Administration: Rat GLP-2 in a 10% gelatin formulation was administered s.c. in a single dose of 5 μg once a day continuously for 4 weeks (panel A), for 8 weeks (panel B) or for 12 weeks (panel C). FIG. 5 illustrates GLP-2 mediated effects on small bowel weight (BW) and in the crypt plus villus heights (PJ, DJ and DI) in treated groups (T), relative to a control (C) receiving 10% gelatin alone. […] A similar response was noted also for the distal jejunum."}, "[3]": {"conditions": "group of four mice, 62.5 μg/dose twice daily for 10 days in 16% gelatin"}, "[4]": {"conditions": "62.5 μg/dose twice daily for 10 days in 16% gelatin"}, "[5]": {"conditions": "41.5 μg s.c. every 12 hours for 10 days in 16% gelatin"}}, "note": "Several values for one entry are separate records, joined by “and”; a condition that tells them apart may be missing. Equal values may be shown once. Ends that are not written are not given here.", "data": [{"molecule": "GLP-1: human GLP-1 (7-36 amide), custom synthesized by tBoc-based solid phase approach [reference compound]", "values": [{"measurement": "Small bowel weight % body wt", "setting": "small bowel; [3]", "result": "5.26 ± .2 % body wt"}, {"measurement": "Small bowel weight Average", "setting": "small bowel; [3]", "result": "1.33 ± .04 gm"}, {"measurement": "Small bowel weight Day 10", "setting": "small bowel; [4]", "result": "1.4 gm and 1.3 gm and 1.2 gm"}, {"measurement": "Weight of Mice Day 10", "setting": "[1]; [4]", "result": "24.8 gm and 22.8 gm and 26.5 gm"}, {"measurement": "solubility in water", "setting": "Solubility in water", "result": "relative greater solubility in water"}]}, {"molecule": "HADGSFSDEMNTILDNLATRDFINWLIQTKITD [rat GLP-2]", "values": [{"measurement": "Weight of Mice Day 10", "setting": "[1]; [4]", "result": "23.7 gm and 25.7 gm and 27.1 gm and 25.4 gm"}, {"measurement": "histological abnormalities at autopsy", "setting": "[2]", "result": "no histological abnormalities found"}]}, {"molecule": "Glicentin: glicentin (rat), proglucagon gene-derived peptide (peptide, UniProt P06883 21-89, looked up, Glicentin, glicentin (rat), proglucagon gene-derived peptide) Glicentin: HAPQDTEENARSFPASQTEPLEDPDQINEDKRHSQGTFTSDYSKYLDSRRAQDFVQWLMNTKRNRNNIA", "values": [{"measurement": "intestinotrophic effect", "setting": "small bowel; 41.5 μg s.c. every 12 hours for 10 days", "result": "modest"}, {"measurement": "Small bowel weight Day 10", "setting": "small bowel; [5]", "result": "1.6 gm and 1.7 gm and 1.3 gm and 1.9 gm"}, {"measurement": "Weight of Mice Day 10", "setting": "[1]; [5]", "result": "26.6 gm and 26.2 gm and 24.5 gm and 24.7 gm and 25.8 gm"}, {"measurement": "solubility in water", "setting": "Solubility in water", "result": "dissolved easily"}]}]}
